These results are taken from doi:10.1101/2022.05.06.490860 (bioRxiv, 2022).

For data set [1], the target named is KatA, dimer form (KatA-2) (B. subtilis) (UniProt P26901). Put plainly: SEC.
Data set [2] concerns the target YjoB-NTD (residues 1-159), oligomer form NTD-1 (B. subtilis 168) (UniProt O34703). Put plainly: crystal structure.
Data set [3] deals with the molecule itself. Put plainly: SEC.
Data set [4] concerns the target T1, KatA, monomeric form (KatA-1) (B. subtilis, UniProt P26901 1-483).
T1 sequence (looked up): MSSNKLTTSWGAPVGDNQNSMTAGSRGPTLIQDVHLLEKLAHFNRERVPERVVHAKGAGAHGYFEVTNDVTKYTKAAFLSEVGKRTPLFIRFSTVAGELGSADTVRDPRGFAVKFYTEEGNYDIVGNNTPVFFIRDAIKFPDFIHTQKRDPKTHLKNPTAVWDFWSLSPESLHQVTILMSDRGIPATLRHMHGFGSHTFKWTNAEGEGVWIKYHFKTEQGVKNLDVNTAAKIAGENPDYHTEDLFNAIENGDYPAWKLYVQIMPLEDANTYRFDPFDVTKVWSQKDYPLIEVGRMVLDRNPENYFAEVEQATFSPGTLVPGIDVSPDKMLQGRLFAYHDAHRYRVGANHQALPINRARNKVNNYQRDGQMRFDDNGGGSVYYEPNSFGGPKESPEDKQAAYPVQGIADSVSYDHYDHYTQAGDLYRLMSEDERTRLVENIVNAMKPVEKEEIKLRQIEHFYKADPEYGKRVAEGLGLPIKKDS
The data set can be described thus: SEC.

Data set [5] deals with the molecule itself. The data set can be described thus: crystal structure.

As for “KatA, dimer form (KatA-2) (from UniProt P26901 1-483) (enzyme)”, in data set [1], the stoichiometry N is 2. As to “YjoB-NTD (residues 1-159), oligomer form NTD-1 (from UniProt O34703 1-159) (domain or fragment)”, the stoichiometry N in data set [2] was found to be 12.

B1: YjoB-AAA domain (residues 159-423) (domain or fragment, B. subtilis 168, UniProt O34703 159-423, looked up)
chain: RKVTVFTDGDGGTSREQEAIVREVQRSQVIMNPLLKKEIYRSIDQFFHSDKSFYQTYDIPYKRGILLYGPPGNGKTTLVKSIAGSIDAPVAYWQITEFTSSETIEEVFQAARRLAPAVLVIEDIDSMPEDVRSFFLNTLDGATSKEGLFLIGTTNYPEEIDPGLMNRAGRFDRAYEIGLPDEELRLEYMKMRGFGIFLSEGEIKNAAKLTEGFSFAQLGELYVSSALQWHQEGNHHIETMVKDMTGEQRKSQRGSWMERNKVGFH
Consider B1, for which the “stoichiometry N” value in data set [3] was 6.

B2: Bacillus subtilis YjoB (residues 1-423) (natural protein, B. subtilis 168, UniProt O34703 1-423, looked up)
chain: MTNIPFIYQYEEKENERAAAGYGTFGYLITRIEETLYDQYGVFYELYASDDPNTEYWELLVEDVRSGSLEPEHVAYIFEKLEKKTFAYDEDEKEPDYTVHKSIRNSVYAYPEKGVAFARIPYFQDGSIMSFDCLFAVNDEKMRAFLEGVRPRLWEKSKRKVTVFTDGDGGTSREQEAIVREVQRSQVIMNPLLKKEIYRSIDQFFHSDKSFYQTYDIPYKRGILLYGPPGNGKTTLVKSIAGSIDAPVAYWQITEFTSSETIEEVFQAARRLAPAVLVIEDIDSMPEDVRSFFLNTLDGATSKEGLFLIGTTNYPEEIDPGLMNRAGRFDRAYEIGLPDEELRLEYMKMRGFGIFLSEGEIKNAAKLTEGFSFAQLGELYVSSALQWHQEGNHHIETMVKDMTGEQRKSQRGSWMERNKVGFH
Take B2: the binding result in data set [4] is “binds”. Also, the “stoichiometry N” value in data set [5] worked out at 6.
